Where a SMILES comes first, the peptide text is derived from it. Bridges are numbered along the chain shown (N, C = ends). Where no end group is shown, it is not given here. [ ]: non-standard residue; d: D form. pGlu = O=C1CC[C@@H](C(=O)O)N1
Tests used:
[1] = molecular target: human melanocortin 4 receptor with LgBit fused at the C-terminus (human) (UniProt P32245)
[2] = molecular target: T1, mouse melanocortin 4 receptor (MC4R) (Mus musculus, UniProt P56450); test: cAMP second messenger quantification assay (Cisbio HTRF cAMP Gs kit); assay type: cell-based
T1 construct: expressed in transfected cells; host or cells: HEK293 / HEK293T, transient transfection
T1 sequence (P56450 whole entry): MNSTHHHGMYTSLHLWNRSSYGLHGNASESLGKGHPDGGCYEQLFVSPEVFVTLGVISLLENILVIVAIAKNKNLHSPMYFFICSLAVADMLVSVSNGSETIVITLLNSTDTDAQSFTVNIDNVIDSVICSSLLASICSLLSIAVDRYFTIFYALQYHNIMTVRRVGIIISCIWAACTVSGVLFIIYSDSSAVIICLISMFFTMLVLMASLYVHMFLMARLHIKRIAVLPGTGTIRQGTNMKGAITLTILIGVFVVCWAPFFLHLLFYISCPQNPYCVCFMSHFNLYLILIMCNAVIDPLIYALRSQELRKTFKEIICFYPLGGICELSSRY
Protocol: Figure 3 Functional cAMP assay of synthesized peptide analogues targeting MC4R. The accumulation of adenylyl cyclase-catalyzed cAMP of (A) tachylplesin-1-like peptides (Ta1LPs, green), (B) protegrin-4-like peptides ([…], pink), (C) arenicin-3-like peptides (Ar3LPs, orange), and (D) gomesin-like peptides (GoLPs, blue) was measured in HEK293 cells transiently expressing mouse melanocortin 4 receptor (MC4R). […] Data are from three independent experiments and are shown as mean ± SEM.
Assays were performed on cells transiently expressing mouse MC4R-EGFP. BamHI and SacI restriction sites were used to clone mouse MC4R N-terminally into a pEGFP-N1 vector. Peptide ligands were assayed for […] in a 384-well format and triplicate according to the Cisbio protocol. Briefly, 5 μL containing 10,000 cells per well was incubated with 5 μL of peptide solutions prepared 2× in 1× stimulation buffer. Following an incubation of peptide ligands at 37 °C for 30 min, d2-labeled cAMP and cryptate-labeled antibody (5 μL of each) were added to the mixture and further incubated for at least 1 h at room temperature. Subsequently, cAMP levels were quantified on a Flexstation 3 (Molecular Devices, San Jose, USA) using homogeneous time-resolved fluorescence resonance energy transfer and the ratio 665/620 nm. Samples were measured in technical triplicates.
Data analysis was performed with GraphPad Prism (GraphPad Software, San Diego). The potency (EC50) and maximum efficacy (Emax) values of peptide ligands were derived from functional data fitted to three- or four-parameter nonlinear regression curves constrained to a bottom of zero.

mouse MC4R-EGFP = test: kinetic BRET β-arrestin-2 recruitment assay (MC4R-EGFP / β-arrestin-2-nanoluciferase); assay type: cell-based; settings: ligand 10 μM; HEK293 cells, MC4R-EGFP and β-arrestin-2-NLuc; mean ligand-induced BRET from 312 to 2433 s, NDP-α-MSH set as 100; three independent experiments
Protocol: Considering the physiological relevance of β-arrestins and their critical role in orchestrating MC4R signaling, we measured β-arrestin-2 recruitment in a kinetic bioluminescence resonance energy transfer (BRET) assay. We screened at a ligand concentration of 10 μM in HEK293 cells transiently expressing MC4R coupled to EGFP, and β-arrestin-2 fused to nanoluciferase. […] By contrast, Pr4LP1, Ar3LP1, Ar3LP2, and GoLP1 recruited β-arrestin-2 with greater efficiencies (>130%) than NDP-α-MSH (Figures 4 and S5B,C).
Figure 4 β-Arrestin-2 recruitment of designed MC4R peptide analogues. BRET assay was used to measure the transient interaction of MC4R-EGFP with β-arrestin-2-nanoluciferase (NLuc) in HEK293 cells over time following cell treatment with 10 μM of tachyplesin-1-like peptides (Ta1LPs, green), protegrin-4-like peptides (Pr4LPs, pink), arenicin-3-like peptides (Ar3LPs, orange), and gomesin-like peptides (GoLPs, blue). Relative BRET quantification was determined by calculating the mean value of ligand-induced BRET for each peptide ligand from 312 to 2433 s which was then divided by the mean value of ligand-induced BRET of NDP-α-MSH set as 100. Data are shown as mean ± SEM from three independent experiments.
BRET assay was performed as previously described.[32] Briefly, β-arrestin-2-nano luciferase and mouse MC4R-EGFP were cotransfected in a 1:10 ratio. 16 h post-transfection, 50,000 cells in 100 μL of phenol red-free DMEM with 10% FBS per well were transferred into white clear bottom 96-well plates and incubated overnight. On the day of the assay, cells were incubated for 1 h at 37 °C in phenol red- and serum-free DMEM. Furimazine (diluted 1:50) and peptide ligands (4×) were prepared in Hank’s balanced salt solution (HBSS), respectively. Prior to establishing the baseline and measuring kinetic BRET, furimazine was incubated for 5 min at 37 °C. The ability of peptide ligands to induce β-arrestin-2 recruitment was assessed by measuring light emissions for EGFP (510 nm) and nanoluciferase (460 nm) over 35 min using Flexstation 3 (Molecular Devices, San Jose, USA). The BRET ratio was calculated as emission EGFP (510 nm)/emission nanoluciferase (460 nm). The ligand-induced BRET was calculated by subtracting […].

[3] = molecular target: mouse melanocortin 4 receptor fused to EGFP (mouse) (UniProt P56450)
Sequence of mouse melanocortin 4 receptor fused to EGFP (mouse) (P56450 whole entry, the tested form may be a part): as the sequence (P56450 whole entry) above

[4] = molecular target: mouse melanocortin 4 receptor fused to EGFP (mouse) (UniProt P56450); remark: listed apart in the source
[5] = molecular target: human melanocortin 4 receptor with C-terminally fused SmBit (human) (UniProt P32245)
Sequence of human melanocortin 4 receptor with C-terminally fused SmBit (human) (P32245 whole entry, the tested form may be a part): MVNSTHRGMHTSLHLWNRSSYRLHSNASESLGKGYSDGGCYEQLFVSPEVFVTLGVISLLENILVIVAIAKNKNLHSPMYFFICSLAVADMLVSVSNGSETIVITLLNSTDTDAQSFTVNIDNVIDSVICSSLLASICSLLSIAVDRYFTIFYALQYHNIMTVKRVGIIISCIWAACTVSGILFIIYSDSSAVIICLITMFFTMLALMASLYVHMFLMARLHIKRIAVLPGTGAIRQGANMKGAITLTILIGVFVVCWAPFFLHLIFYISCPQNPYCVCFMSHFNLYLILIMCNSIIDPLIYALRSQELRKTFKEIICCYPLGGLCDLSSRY

Sequence of human melanocortin 4 receptor with LgBit fused at the C-terminus (human) (P32245 whole entry, the tested form may be a part): as above

coupling of Gαs-SmBit to MC4R-LgBit (nanoluciferase complementation, live cells): EC50 [1]	cAMP accumulation (Cisbio HTRF) in HEK293 cells transiently expressing mouse MC4R-EGFP: EC50 [3]	cAMP accumulation (Cisbio HTRF) in HEK293 cells transiently expressing mouse MC4R-EGFP: Emax (normalised to NDP-α-MSH) [3]	recruitment of β-arrestin-2-nanoluciferase to MC4R-EGFP (kinetic BRET, HEK293 cells), 10 μM peptide: BRET efficiency relative to NDP-α-MSH (100) [4]	coupling of Gαs-SmBit to MC4R-LgBit (nanoluciferase complementation, live cells): efficacy above that of α-MSH (% more efficacious than α-MSH) [1]	recruitment of β-arrestin-2-LgBit to MC4R-SmBit (nanoluciferase complementation, live cells): EC50 [5]	recruitment of β-arrestin-2-LgBit to MC4R-SmBit (nanoluciferase complementation, live cells): increase in efficacy (Emax) over α-MSH (% increase in efficacy compared to α-MSH) [5]	recruitment of β-arrestin-2-nanoluciferase to MC4R-EGFP (kinetic BRET, HEK293 cells), 10 μM peptide: BRET efficacy relative to NDP-α-MSH (100) [4]	Molecule	EC50 [2]	Emax ([2]; HEK293, read-out: efficacy cAMP Emax ± SD)	BRET efficacy of β-arrestin-2 recruitment relative to NDP-α-MSH (mouse MC4R-EGFP)
1 nM								α-MSH (peptide)			
								CC(C)C[C@@H]1NC(=O)[C@H](CCCNC(=N)N)NC(=O)[C@H](CCCNC(=N)N)NC(=O)[C@@H](NC(=O)[C@@H]2CCC(=O)N2)CSSC[C@@H](C(=O)N[C@@H](CCCNC(=N)N)C(=O)NCC(=O)N[C@@H](CCCNC(=N)N)C(N)=O)NC(=O)[C@H](Cc2ccc(O)cc2)NC(=O)[C@H]([C@@H](C)O)NC(=O)[C@H](C(C)C)NC(=O)[C@@H]2CSSC[C@H](NC1=O)C(=O)N1CCC[C@H]1C(=O)N[C@@H](Cc1c[nH]cn1)C(=O)N[C@H](Cc1ccccc1)C(=O)N[C@@H](Cc1c[nH]cn1)C(=O)N[C@@H](Cc1c[nH]c3ccccc13)C(=O)N2 [GoLP1] ([pGlu]CRRLCPH[dF]HWCVTYCRGR-NH2; disulfide 2-16, 6-12)	26 nM	99 ± 3%	> 130%
	18 nM	95%	> 130%					GFCWYVCVYPH[dF]HWVCYRRCN-NH2 (disulfide 7-16, 3-20; N-terminus assumed; SMILES CC(C)[C@@H]1NC(=O)[C@H](Cc2c[nH]c3ccccc23)NC(=O)[C@H](Cc2c[nH]cn2)NC(=O)[C@@H](Cc2ccccc2)NC(=O)[C@H](Cc2c[nH]cn2)NC(=O)[C@@H]2CCCN2C(=O)[C@H](Cc2ccc(O)cc2)NC(=O)[C@H](C(C)C)NC(=O)[C@@H]2CSSC[C@H](NC1=O)C(=O)N[C@@H](Cc1ccc(O)cc1)C(=O)N[C@@H](CCCNC(=N)N)C(=O)N[C@@H](CCCNC(=N)N)C(=O)N[C@H](C(=O)N[C@@H](CC(N)=O)C(N)=O)CSSC[C@H](NC(=O)[C@H](Cc1ccccc1)NC(=O)CN)C(=O)N[C@@H](Cc1c[nH]c3ccccc13)C(=O)N[C@@H](Cc1ccc(O)cc1)C(=O)N[C@@H](C(C)C)C(=O)N2) [arenicin-3-like peptide 2]			
0.702 nM	1 nM	98%	> 130%	25	25.2 nM	82		GFCWYVCPH[dF]HWCYRRCN-NH2 (disulfide 7-13, 3-17; N-terminus assumed; SMILES CC(C)[C@@H]1NC(=O)[C@H](Cc2ccc(O)cc2)NC(=O)[C@H](Cc2c[nH]c3ccccc23)NC(=O)[C@@H](NC(=O)[C@H](Cc2ccccc2)NC(=O)CN)CSSC[C@@H](C(=O)N[C@@H](CC(N)=O)C(N)=O)NC(=O)[C@H](CCCNC(=N)N)NC(=O)[C@H](CCCNC(=N)N)NC(=O)[C@H](Cc2ccc(O)cc2)NC(=O)[C@@H]2CSSC[C@H](NC1=O)C(=O)N1CCC[C@H]1C(=O)N[C@@H](Cc1c[nH]cn1)C(=O)N[C@H](Cc1ccccc1)C(=O)N[C@@H](Cc1c[nH]cn1)C(=O)N[C@@H](Cc1c[nH]c3ccccc13)C(=O)N2) [arenicin-3-like peptide 1]			
	820 nM	106%					< 60%	GFCWYVCVYH[dF]HWRVCYRRCN-NH2 (disulfide 7-16, 3-20) [arenicin-3-like peptide 4]			
0.193 nM	3.7 nM	96%	> 130%	8.8	23.5 nM	99		RGGRLCYCPH[dF]HWCFCVGR-NH2 (disulfide 8-14, 6-16; N-terminus assumed; SMILES CC(C)C[C@H](NC(=O)[C@H](CCCNC(=N)N)NC(=O)CNC(=O)CNC(=O)[C@@H](N)CCCNC(=N)N)C(=O)N[C@H]1CSSC[C@@H](C(=O)N[C@H](C(=O)NCC(=O)N[C@@H](CCCNC(=N)N)C(N)=O)C(C)C)NC(=O)[C@H](Cc2ccccc2)NC(=O)[C@@H]2CSSC[C@H](NC(=O)[C@H](Cc3ccc(O)cc3)NC1=O)C(=O)N1CCC[C@H]1C(=O)N[C@@H](Cc1c[nH]cn1)C(=O)N[C@H](Cc1ccccc1)C(=O)N[C@@H](Cc1c[nH]cn1)C(=O)N[C@@H](Cc1c[nH]c3ccccc13)C(=O)N2) [protegrin-4-like peptide 1]			
	260 nM	99%					< 60%	GFCWYVCVYH[dF]RWRVCYRRCN-NH2 (disulfide 7-16, 3-20) [arenicin-3-like peptide 5]			

— article PMC10580383, “Development of Melanocortin 4 Receptor Agonists by Exploiting Animal-Derived Macrocyclic, Disulfide-Rich Peptide Scaffolds” (ACS Pharmacology & Translational Science, 2023)
